Assay results taken from PMC3047542, “Structure of HsdS Subunit from Thermoanaerobacter tengcongensis Sheds Lights on Mechanism of Dynamic Opening and Closing of Type I Methyltransferase” (PLoS ONE, 2011).

Target: T1, TTE-HsdS (wild type), specificity subunit of the type I methyltransferase from Thermoanaerobacter … (Thermoanaerobacter tengcongensis, UniProt Q8R9Q6 1-398)
T1 construct: HsdS specificity subunit of Thermoanaerobacter tengcongensis, ORF TTE1545, wild type; 398 amino acids (Met1-Leu398), MW 46.5 kDa; Cloned into site 1 of pET-DUET (with N-terminal His tag); source: E. coli BL21 (DE3), co-expressed with TTE-HsdM (wild type or mutant) from pET-DUET; not shown: His tag, N-terminal, kept
T1 sequence (looked up): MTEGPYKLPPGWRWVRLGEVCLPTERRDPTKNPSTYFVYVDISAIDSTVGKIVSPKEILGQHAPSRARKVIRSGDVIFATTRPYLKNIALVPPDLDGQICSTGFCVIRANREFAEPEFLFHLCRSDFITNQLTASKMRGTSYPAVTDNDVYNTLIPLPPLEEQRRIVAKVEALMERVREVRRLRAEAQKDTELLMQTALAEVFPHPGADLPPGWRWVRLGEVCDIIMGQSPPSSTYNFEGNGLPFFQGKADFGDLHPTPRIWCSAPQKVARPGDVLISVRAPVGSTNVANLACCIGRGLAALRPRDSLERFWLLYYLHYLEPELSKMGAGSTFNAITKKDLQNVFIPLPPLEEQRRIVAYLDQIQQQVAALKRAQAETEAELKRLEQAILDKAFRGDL
Test: AUC; analytical ultracentrifugation of the co-purified wild-type TTE-HsdS/TTE-HsdM complex; molecular weight 165 kDa
Conditions: both partners purified

B1: TTE-HsdM (wild type), modification subunit of the type I methyltransferase from Thermoanaerobacter tengcongensis (natural protein, UniProt Q8R9Q4 1-507, looked up)
chain: MNGPQTRESLANEIWRACDIMRRDNNCTGIMEYVEHLAWLLFLRFLDAQEEEWEAQAQIAGRPYTPIIDSEYRWRHWATKDWPADELLAFVHGRLIPYLRSLGGDPLRETIRSLFSERNVIVCASGYNLKDVIQIVNEINFHSQDDIFTVSQVYEELLRRLGNENRLAGEFYTPRPVVRFVVELVDPQIGEAVYDPACGTCGFLVEAYLWMKQKERTIEDHRILQERTFFGQEKKPVPAFLGLVNMMLHGVTVPRVMRRNTLEENIRNVSERFDVVVTNPPFGGTEGRHIQQNFPIQSNATELLFLQHIMKKLKPRDGARCGMVVPEGTLFRGGAFAEVKRDLLEQFNLHTVVSLPPGTFAPYSDVKTALIFFERPGPTKEIWYYELPLPEGLKKFSKGNPIQDEHFEEARKLWRGWDAYRKGLGPVEACLSERSWIVPVEEVKKRGYDLTARNPNRSGGEELPSPVEIVAGLLEKEREILSIMEELSELLENEKGNSSRKNDEEEE
notes: HsdM modification subunit of Thermoanaerobacter tengcongensis, ORF TTE1547, wild type; MW 58.5 kDa; Cloning site 2 of pET-DUET, without tag; Two copies in the M2S1 complex; Expressed alone it was insoluble
B1 was tested. Which “stoichiometry N” value did it give?
Its value is 2 HsdM per HsdS.
